Laboratory results as given in US20060222661A1.

Target: human CD81 (on Huh-7 cells and human primary hepatocytes) (human) (UniProt P60033)
Test: cell-based or functional assay

Sequence of human CD81 (on Huh-7 cells and human primary hepatocytes) (human) (P60033 whole entry): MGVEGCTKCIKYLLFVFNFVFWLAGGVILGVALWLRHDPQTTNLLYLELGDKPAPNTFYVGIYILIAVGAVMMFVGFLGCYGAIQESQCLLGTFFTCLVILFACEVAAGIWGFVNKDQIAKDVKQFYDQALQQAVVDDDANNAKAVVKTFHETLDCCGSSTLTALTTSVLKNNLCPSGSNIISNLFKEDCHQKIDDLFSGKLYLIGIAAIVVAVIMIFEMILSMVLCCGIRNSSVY

How did the inhibition of infection by HCVpp of genotypes 1a and 1b, target cells pre-incubated with 30 µg/ml antibody turn out when “JS-81 anti-CD81 monoclonal antibody (Pharmingen)” was run?
The inhibition of infection by HCVpp of genotypes 1a and 1b, target cells pre-incubated with 30 µg/ml antibody was > 90%.
